Measurements from patent publication US7312060.

How the values were obtained:
[1] = molecular target: APC segment 3 (amino acids 1098-1696), wild type, with N-terminal VSV-G tag and C-terminal P53-derived tag (Vesicular Stomatitis Virus; human) (UniProt P25054); test: HTS-PTT ELISA, 0.1 ul of translation mix per well
[2] = molecular target: APC segment 3 (amino acids 1098-1696), wild type, with N-terminal VSV-G tag and C-terminal P53-derived tag (Vesicular Stomatitis Virus; human) (UniProt P25054); test: HTS-PTT ELISA on NeutrAvidin plate, alkaline phosphatase chemiluminescence
[3] = molecular target: APC segment 3 (amino acids 1098-1696), wild type, with N-terminal VSV-G tag and C-terminal P53-derived tag (Vesicular Stomatitis Virus; human) (UniProt P25054); test: HTS-PTT ELISA on NeutrAvidin plate, HRP chemiluminescence

UniProt P25054, sequence (P25054 other isoform, or with tags, fused parts or gaps limits assumed): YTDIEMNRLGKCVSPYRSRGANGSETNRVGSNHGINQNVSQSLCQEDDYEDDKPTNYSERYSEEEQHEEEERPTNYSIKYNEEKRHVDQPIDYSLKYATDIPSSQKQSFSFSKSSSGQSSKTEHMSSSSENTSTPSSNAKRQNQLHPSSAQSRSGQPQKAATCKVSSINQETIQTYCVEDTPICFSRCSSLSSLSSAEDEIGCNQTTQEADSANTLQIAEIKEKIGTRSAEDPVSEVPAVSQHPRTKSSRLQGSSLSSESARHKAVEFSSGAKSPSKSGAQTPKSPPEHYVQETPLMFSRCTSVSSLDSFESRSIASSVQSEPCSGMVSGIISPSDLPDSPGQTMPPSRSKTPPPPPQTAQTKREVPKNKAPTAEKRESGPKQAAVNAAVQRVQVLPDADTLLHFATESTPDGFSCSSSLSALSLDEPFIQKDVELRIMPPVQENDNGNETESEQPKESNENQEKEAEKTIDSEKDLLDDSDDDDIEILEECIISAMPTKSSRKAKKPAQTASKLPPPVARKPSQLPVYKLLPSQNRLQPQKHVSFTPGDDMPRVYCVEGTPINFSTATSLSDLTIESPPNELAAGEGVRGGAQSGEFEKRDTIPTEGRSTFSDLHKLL

Substance | signal-to-noise ratio [1] | signal over background (fold over background) [2] | signal over background (fold over background) [3]
anti-p53-alkaline phosphatase (Santa Cruz Biotechnology) (antibody) | 30 | 100 | 
anti-VSV-G-HRP (Roche Applied Sciences) (antibody) | 10 |  | 400
